Source: patent US12697350B2, “Methods and compositions for treating a premature termination codon-mediated disorder” (Tevard Biosciences, Inc., priority 2019, dated 2026)

What was measured:
EGFP-R96X-TGA reporter = experiment: PTC readthrough of ArgTCA suppressor tRNA versus nonsense suppression drugs, EGFP-R96X-TGA reporter, Neuro-2a cells (FIGS. 21-22); format: cell-based, mouse; details: versus ataluren, gentamicin, G418
Protocol: FIG. 21 depicts fluorescent images of Neuro-2a cells ~24 hours after transfection with an expression construct containing an EGFP-R96X-TGA reporter (“GFP-PTC”) and either (i) including the ArgTCA suppressor tRNA #115 (SEQ ID NO: 18) at the indicated copy number on the same construct, or (ii) treated with ataluren at the indicated concentration, (iii) treated with gentamicin at the indication concentration, or (iv) treated with G418 at the indicated concentration. For all experimental conditions, cell culture medium was replaced with fresh medium ~6 hours after transfection and the indicated drugs at the indicated concentrations were added at this point. […]
FIG. 22 is a graph depicting percentage of GFP positive cells as measured by flow cytometry at ~48 hours post transfection. […]
Disclosed suppressor tRNAs were tested alongside nonsense suppression drugs translarna (ataluren), gentamicin, and G418 (geneticin). PTC readthrough activity was measured in Neuro-2a cells ~48 hours after transfection with an expression construct containing a CAG:NLS-EGFP (R96X-TGA) reporter (as described in Example 1) and either (i) including an ArgTCA suppressor tRNA at the indicated copy number on the same construct, or (ii) treated with ataluren, (iii) treated with gentamicin, or (iv) treated with G418. […] PTC readthrough activity was measured as the percentage of EGFP positive cells. […]

Neuro-2a cells = format: cell-based, mouse
Protocol: FIG. 23 is a graph depicting cell viability from FIG. 22 as measured by flow cytometry at ~48 hours post transfection. Neuro-2a cells were transfected with an expression construct containing the EGFP-R96X-TGA reporter (“GFP-PTC”) and either (i) transfected with an expression construct including the ArgTCA suppressor tRNA #115 (SEQ ID NO: 18) at the indicated copy number on the same construct, or (ii) treated with ataluren at the indicated concentration, (iii) treated with gentamicin at the indication concentration, or (iv) treated with G418 at the indicated concentration. For all experimental conditions, cell culture medium was replaced with fresh medium ~6 hour after transfection and the indicated drugs at the indicated concentrations were added at this point. A reporter containing wildtype GFP without a PTC (“WT-GFP”) was used as a control. “Mock” indicates mock transfected cells. “4×TCG” indicates cells transfected with an expression construct that contains four copies of a wild-type Arg-tRNA with a TCG anticodon and the EGFP-R96X-TGA reporter. Cell viability was assessed by flow cytometry using 7-Amino Actinomycin D (7-AAD), a membrane impermeant dye that is generally excluded from viable cells.
FIG. 34 is a graph depicting cell viability from FIG. 33 as measured by flow cytometry at ~48 hours post transfection. […] Cell viability was assessed by flow cytometry using 7-Amino Actinomycin D (7-AAD), a membrane impermeant dye that is generally excluded from viable cells.
FIG. 36 is a graph depicting cell viability from FIG. 35 as measured by flow cytometry at ~48 hours post transfection. […] Cell viability was assessed by flow cytometry using 7-Amino Actinomycin D (7-AAD), a membrane impermeant dye that is generally excluded from viable cells. […]

B1: tRNA-Arg-TCT-2-1-TCA-SUP_no intron (nucleic acid)
chain: GGCTCCGTGGCGCAATGGATAGCGCATTGGACTTCAAATTCAAAGGTTCCGGGTTCGAGTCCCGGCGGAGTCG
modifications: chemistry not fully specified
PTC readthrough compared with nonsense suppression drugs (EGFP-R96X-TGA reporter): far greater readthrough than any of the nonsense suppression drugs | cell viability (Neuro-2a cells): not accompanied by a decrease in cell viability
